Experimental data taken from PMC2119608.

Target: CD3 gamma subunit, transiently expressed in COS cells (human) (UniProt P09693)
Assay: co-IP

Chain of UniProt P09693 (P09693 23-182): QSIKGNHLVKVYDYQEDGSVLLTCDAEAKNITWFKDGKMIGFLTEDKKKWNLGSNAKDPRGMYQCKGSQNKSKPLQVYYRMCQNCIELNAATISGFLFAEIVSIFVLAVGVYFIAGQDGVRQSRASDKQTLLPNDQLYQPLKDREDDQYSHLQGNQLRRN

T cell antigen receptor (TCR) beta chain, transiently expressed in COS cells
percent bound to CD3 subunits: 60%
